Experimental data published in PMC8967028.

Molecular target: SARS-CoV-1 spike (S) receptor binding domain (SARS-CoV-1)
Assay: SPR

parental VHH-72-Fc (Fc fusion)
koff: 0.00021 s⁻¹
